According to US11708418:

Tests used:
[1] = molecular target: Daratumumab (Darzalex; lot GHS0901, Janssen, USA); experiment: anti-CD38 (DARATUMUMAB) inhibition IAT, ability to titrate the antibody, CD38ecd-Fc-10H as reference
[2] = molecular target: Daratumumab (Darzalex; lot GHS0901, Janssen, USA); experiment: IAT inhibition; 25 µl Darzalex dilution with 2 µl of 8.5 mg/ml protein

Chain of CD38ecd-flex-Fc-10H (P28907 45-300): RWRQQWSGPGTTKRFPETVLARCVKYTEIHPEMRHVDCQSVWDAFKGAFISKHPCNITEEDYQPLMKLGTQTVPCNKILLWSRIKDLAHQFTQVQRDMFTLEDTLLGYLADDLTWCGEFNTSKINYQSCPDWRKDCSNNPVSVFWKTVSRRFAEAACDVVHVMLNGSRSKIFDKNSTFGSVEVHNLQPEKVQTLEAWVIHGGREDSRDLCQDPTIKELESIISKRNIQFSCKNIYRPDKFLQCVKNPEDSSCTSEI
Chain of CD38ecd-Fc (P28907 45-300 limits assumed): as the sequence (P28907 45-300) above

| Substance | Functionality [1] [%] | anti-CD38 concentration completely inhibited [2] [mg/mL] |
| --- | --- | --- |
| CD38ecd-Fc (from UniProt P28907 45-300) (Fc fusion) | 50 | – |
| CD38ecd-flex-Fc-10H (from UniProt P28907 45-300) (Fc fusion) | 100 | 0.125 |
